Measurements reported in patent US20070020258A1.

Columns and labels:
[1] = target: FcεRI alpha chain on CHO 3D10 cells (UniProt P12319); assay: FACS, CHO 3D10 cells, 0.1 ug/ml
[2] = target: FcεRII (CD23) on IM9 B cells (human) (UniProt P06734); assay: FACS, IM9 cells, 10 ug/ml
[3] = target: FcεRI alpha chain on CHO 3D10 cells (UniProt P12319); assay: FACS, CHO 3D10 cells, 10 ug/ml
[4] = target: FcεRI alpha chain on CHO 3D10 cells (UniProt P12319); assay: FACS, CHO 3D10 cells, 5 ug/ml
[5] = target: FcεRI alpha chain on CHO 3D10 cells (UniProt P12319); assay: FACS, CHO 3D10 cells, 0.5 ug/ml
[6] = target: FcεRII (CD23) on IM9 B cells (human) (UniProt P06734); assay: FACS, IM9 cells, 5 ug/ml
[7] = target: FcεRII (CD23) on IM9 B cells (human) (UniProt P06734); assay: FACS, IM9 cells, 0.1 ug/ml

Chain of FcεRII (CD23) on IM9 B cells (human) (P06734 whole entry): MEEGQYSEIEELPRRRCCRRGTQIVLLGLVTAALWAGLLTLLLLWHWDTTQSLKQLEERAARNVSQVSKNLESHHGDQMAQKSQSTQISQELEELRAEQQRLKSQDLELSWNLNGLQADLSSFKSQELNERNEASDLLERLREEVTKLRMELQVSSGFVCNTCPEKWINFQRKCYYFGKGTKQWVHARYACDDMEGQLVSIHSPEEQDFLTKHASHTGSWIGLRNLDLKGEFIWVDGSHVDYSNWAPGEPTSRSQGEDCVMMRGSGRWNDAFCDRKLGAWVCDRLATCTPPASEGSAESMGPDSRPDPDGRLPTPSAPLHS
Chain of FcεRI alpha chain on CHO 3D10 cells (P12319 26-257 limits assumed): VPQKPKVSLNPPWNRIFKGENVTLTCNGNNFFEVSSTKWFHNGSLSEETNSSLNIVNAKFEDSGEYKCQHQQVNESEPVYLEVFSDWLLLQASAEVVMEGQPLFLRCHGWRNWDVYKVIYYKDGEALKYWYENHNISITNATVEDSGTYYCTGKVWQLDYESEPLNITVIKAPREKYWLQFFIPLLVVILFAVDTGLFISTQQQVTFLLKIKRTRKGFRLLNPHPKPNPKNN

Substance: human IgE purified from U266B1 cells (from UniProt P01854 1-428) (antibody)
- % CHO 3D10(+) [1]: 15.8%
- % IM9 (+) [2]: 92.5%
- % CHO 3D10(+) [3]: 90.3%
- % CHO 3D10(+) [4]: 89.9%
- % CHO 3D10(+) [5]: 59.6%
- % IM9 (+) [6]: 82.6%
- % IM9 (+) [7]: 1.7%
